From patent publication US11499162B2, “Plants having increased tolerance to herbicides” (BASF SE, priority 2016, dated 2022)

B1: ΔS129_A130: TriA deletion variant of SEQ ID NO: 2 (protein)
chain: MQTLSIQHGTLVTMDQYRRVLGDSWVHVQDGRIVALGVHAESVPPPADRVIDARGKVVLPGFINAHTHVNQILLRGGPSHGRQLYDWLFNVLYPGQKAMRPEDVAVAVRLYCAEAVRSGITTINDNADIYPGNIEAAMAVYGEVGVRVVYARMFFDRMDGRIQGYVDALKARSPQVELCSIMEETAVAKDRITALSDQYHGTAGGRISVWPAPAITPAVTVEGMRWAQAFARDRAVMWTLHMAESDHDERLHWMSPAEYMECYGLLDERLQVAHCVYFDRKDVRLLHRHNVKVASQVVSNAYLGSGVAPVPEMVERGMAVGIGTDDGNCNDSVNMIGDMKFMAHIHRAVHRDADVLTPEKILEMATIDGARSLGMDHEIGSIETGKRADLILLDLRHPQTTPHHHLAATIVFQAYGNEVDTVLIDGNVVMENRRLSFLPPERELAFLEEAQSRATAILQRANMVANPAWRSL
modifications: Pseudomonas
B2: ΔA130_I131: TriA deletion variant of SEQ ID NO: 2 (protein)
chain: MQTLSIQHGTLVTMDQYRRVLGDSWVHVQDGRIVALGVHAESVPPPADRVIDARGKVVLPGFINAHTHVNQILLRGGPSHGRQLYDWLFNVLYPGQKAMRPEDVAVAVRLYCAEAVRSGITTINDNADSYPGNIEAAMAVYGEVGVRVVYARMFFDRMDGRIQGYVDALKARSPQVELCSIMEETAVAKDRITALSDQYHGTAGGRISVWPAPAITPAVTVEGMRWAQAFARDRAVMWTLHMAESDHDERLHWMSPAEYMECYGLLDERLQVAHCVYFDRKDVRLLHRHNVKVASQVVSNAYLGSGVAPVPEMVERGMAVGIGTDDGNCNDSVNMIGDMKFMAHIHRAVHRDADVLTPEKILEMATIDGARSLGMDHEIGSIETGKRADLILLDLRHPQTTPHHHLAATIVFQAYGNEVDTVLIDGNVVMENRRLSFLPPERELAFLEEAQSRATAILQRANMVANPAWRSL
modifications: Pseudomonas
B3: ΔA170_S182: TriA deletion variant of SEQ ID NO: 2 (protein)
chain: MQTLSIQHGTLVTMDQYRRVLGDSWVHVQDGRIVALGVHAESVPPPADRVIDARGKVVLPGFINAHTHVNQILLRGGPSHGRQLYDWLFNVLYPGQKAMRPEDVAVAVRLYCAEAVRSGITTINDNADSAIYPGNIEAAMAVYGEVGVRVVYARMFFDRMDGRIQGYVDIMEETAVAKDRITALSDQYHGTAGGRISVWPAPAITPAVTVEGMRWAQAFARDRAVMWTLHMAESDHDERLHWMSPAEYMECYGLLDERLQVAHCVYFDRKDVRLLHRHNVKVASQVVSNAYLGSGVAPVPEMVERGMAVGIGTDDGNCNDSVNMIGDMKFMAHIHRAVHRDADVLTPEKILEMATIDGARSLGMDHEIGSIETGKRADLILLDLRHPQTTPHHHLAATIVFQAYGNEVDTVLIDGNVVMENRRLSFLPPERELAFLEEAQSRATAILQRANMVANPAWRSL
modifications: Pseudomonas
B4: ΔR174_L180: TriA deletion variant of SEQ ID NO: 2 (protein)
chain: MQTLSIQHGTLVTMDQYRRVLGDSWVHVQDGRIVALGVHAESVPPPADRVIDARGKVVLPGFINAHTHVNQILLRGGPSHGRQLYDWLFNVLYPGQKAMRPEDVAVAVRLYCAEAVRSGITTINDNADSAIYPGNIEAAMAVYGEVGVRVVYARMFFDRMDGRIQGYVDALKACSIMEETAVAKDRITALSDQYHGTAGGRISVWPAPAITPAVTVEGMRWAQAFARDRAVMWTLHMAESDHDERLHWMSPAEYMECYGLLDERLQVAHCVYFDRKDVRLLHRHNVKVASQVVSNAYLGSGVAPVPEMVERGMAVGIGTDDGNCNDSVNMIGDMKFMAHIHRAVHRDADVLTPEKILEMATIDGARSLGMDHEIGSIETGKRADLILLDLRHPQTTPHHHLAATIVFQAYGNEVDTVLIDGNVVMENRRLSFLPPERELAFLEEAQSRATAILQRANMVANPAWRSL
modifications: Pseudomonas
B5: S301V: mutated TriA variant of SEQ ID NO: 2 (protein)
chain: MQTLSIQHGTLVTMDQYRRVLGDSWVHVQDGRIVALGVHAESVPPPADRVIDARGKVVLPGFINAHTHVNQILLRGGPSHGRQLYDWLFNVLYPGQKAMRPEDVAVAVRLYCAEAVRSGITTINDNADSAIYPGNIEAAMAVYGEVGVRVVYARMFFDRMDGRIQGYVDALKARSPQVELCSIMEETAVAKDRITALSDQYHGTAGGRISVWPAPAITPAVTVEGMRWAQAFARDRAVMWTLHMAESDHDERLHWMSPAEYMECYGLLDERLQVAHCVYFDRKDVRLLHRHNVKVASQVVVNAYLGSGVAPVPEMVERGMAVGIGTDDGNCNDSVNMIGDMKFMAHIHRAVHRDADVLTPEKILEMATIDGARSLGMDHEIGSIETGKRADLILLDLRHPQTTPHHHLAATIVFQAYGNEVDTVLIDGNVVMENRRLSFLPPERELAFLEEAQSRATAILQRANMVANPAWRSL
modifications: Pseudomonas
B6: Y304K: mutated TriA variant of SEQ ID NO: 2 (protein)
chain: MQTLSIQHGTLVTMDQYRRVLGDSWVHVQDGRIVALGVHAESVPPPADRVIDARGKVVLPGFINAHTHVNQILLRGGPSHGRQLYDWLFNVLYPGQKAMRPEDVAVAVRLYCAEAVRSGITTINDNADSAIYPGNIEAAMAVYGEVGVRVVYARMFFDRMDGRIQGYVDALKARSPQVELCSIMEETAVAKDRITALSDQYHGTAGGRISVWPAPAITPAVTVEGMRWAQAFARDRAVMWTLHMAESDHDERLHWMSPAEYMECYGLLDERLQVAHCVYFDRKDVRLLHRHNVKVASQVVSNAKLGSGVAPVPEMVERGMAVGIGTDDGNCNDSVNMIGDMKFMAHIHRAVHRDADVLTPEKILEMATIDGARSLGMDHEIGSIETGKRADLILLDLRHPQTTPHHHLAATIVFQAYGNEVDTVLIDGNVVMENRRLSFLPPERELAFLEEAQSRATAILQRANMVANPAWRSL
modifications: Pseudomonas
B7: Q71T: mutated TriA variant of SEQ ID NO: 2 (protein)
chain: MQTLSIQHGTLVTMDQYRRVLGDSWVHVQDGRIVALGVHAESVPPPADRVIDARGKVVLPGFINAHTHVNTILLRGGPSHGRQLYDWLFNVLYPGQKAMRPEDVAVAVRLYCAEAVRSGITTINDNADSAIYPGNIEAAMAVYGEVGVRVVYARMFFDRMDGRIQGYVDALKARSPQVELCSIMEETAVAKDRITALSDQYHGTAGGRISVWPAPAITPAVTVEGMRWAQAFARDRAVMWTLHMAESDHDERLHWMSPAEYMECYGLLDERLQVAHCVYFDRKDVRLLHRHNVKVASQVVSNAYLGSGVAPVPEMVERGMAVGIGTDDGNCNDSVNMIGDMKFMAHIHRAVHRDADVLTPEKILEMATIDGARSLGMDHEIGSIETGKRADLILLDLRHPQTTPHHHLAATIVFQAYGNEVDTVLIDGNVVMENRRLSFLPPERELAFLEEAQSRATAILQRANMVANPAWRSL
modifications: Pseudomonas
B8: N302E: mutated TriA variant of SEQ ID NO: 2 (protein)
chain: MQTLSIQHGTLVTMDQYRRVLGDSWVHVQDGRIVALGVHAESVPPPADRVIDARGKVVLPGFINAHTHVNQILLRGGPSHGRQLYDWLFNVLYPGQKAMRPEDVAVAVRLYCAEAVRSGITTINDNADSAIYPGNIEAAMAVYGEVGVRVVYARMFFDRMDGRIQGYVDALKARSPQVELCSIMEETAVAKDRITALSDQYHGTAGGRISVWPAPAITPAVTVEGMRWAQAFARDRAVMWTLHMAESDHDERLHWMSPAEYMECYGLLDERLQVAHCVYFDRKDVRLLHRHNVKVASQVVSEAYLGSGVAPVPEMVERGMAVGIGTDDGNCNDSVNMIGDMKFMAHIHRAVHRDADVLTPEKILEMATIDGARSLGMDHEIGSIETGKRADLILLDLRHPQTTPHHHLAATIVFQAYGNEVDTVLIDGNVVMENRRLSFLPPERELAFLEEAQSRATAILQRANMVANPAWRSL
modifications: Pseudomonas

Assay type: biochemical
Conditions: pH 7.2
Procedure: EXAMPLE 3: Protein Purification. TriA and variants thereof were produced in E. coli BL21(DE3) Gold (Agilent Technologies, Germany). Therefore E. coli was transformed with appropriate pET24d N-HIS tag expression vector and chaperone plasmid pGro7 (chaperones groEL and groES). Bacterial strains were grown at 30° C. in 100 mL LB for 20 h and protein expression induced with 0.1 mM IPTG at 25° C. for 20 hs. Cells were harvested by centrifugation at 3000 rpm at 4° C. for 20 min, resuspended in Bug Buster protein extraction reagent (Novagen, Germany) according to manufactures instructions. Lysates were clarified by centrifugation. Samples of bovine serum albumin ([…]) were loaded onto each gel analyzed by densitometry to provide an internal standard. Protein determinations were verified using Coomassie protein assay dye, according to manufactures instruction (Thermo Scientific; USA). The HIS-tagged enzymes were purified by metal ion affinity chromatography using Ni-IDA 1000 kit (Macherey-Nagel, Germany) following manufactures instructions. Protein purity was accessed by SDS-PAGE using NuPAGE Novex 4-12% Bis-Tris pre-cast gels (Life Technologies; USA) stained with Coomassie Brilliant Blue (Serva, Germany). Protein concentrations were estimated by measuring absorbance at 280 nm using Lambda Bio+(Perkin Elmer, USA). EXAMPLE 4: Enzyme kinetics. Resting cell suspension containing triA gene were incubated with various azines, melamine and atrazine and the culture filtrate was analyzed by UPLC-HR-MS. Substrates were obtained either from Sigma-Aldrich or synthesized internally. Synthetic standards and enzyme reaction products were analysed by UPLC-HR-MS (Thermo/Dionex UPLC UltiMate3000 coupled to a QExactive high resolution mass spectrometer). A Waters Acquity HSS T3 column (2.1 mm; 100 mm; […]) was used with a mobile phase water/acetonitrile (0.1% formic acid) with a flow rate of […]. Enzymes were used solved 25 mM sodium phosphate buffer (pH 7.2) with substrate concentration in the range of 1 nM to 10 nM at 30° C. Over time, the original azine peak disappeared whereas the formed OH-Metabolite (reaction product) increased. The product was identified by determination of the exact formula and by analysis of the accurate MS-MS fragments. Moreover for some of the formed products authentic standards were co-eluted. Degradation in % was calculated against the cells harboring the empty vector as control.

Molecule	Degradation in % of 6-cyclopentyl-N4-(2,3,4,5,6-pentafluorophenyl)-1,3,5-triazine-2,4-diamine	Degradation in % of Melamine
B1	3%	0%
B2	0%	3%
B3	2%	0%
B4	0%	1%
B5	0%	0%
B6	0%	2%
B7	0%	0%
B8	1%	8%
